Data: article PMC2199964

Biological target: Suc1 protein coupled to CNBr-Sepharose beads (UniProt P08463)
Assay: pull-down

Chain of Suc1 protein coupled to CNBr-Sepharose beads (P08463 whole entry): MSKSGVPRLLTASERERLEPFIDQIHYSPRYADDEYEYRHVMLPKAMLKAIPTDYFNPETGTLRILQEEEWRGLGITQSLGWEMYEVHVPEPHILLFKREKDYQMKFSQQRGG

Xenopus cyclin E, endogenous in interphase egg extract (natural protein)
percent of the protein removed from the extract by Suc1 beads: > 90%
